These results are taken from patent publication US20260159579A1 (Pfizer, published 2026).

Experiment [1] has as its target Mouse Fc-mouse GDF15 (Mu IgG1Fc_Fxa_Mu GDF15) (mouse). Description: SPR BIAcore T200, 37C; Fc-GDF15 captured, monomeric Fc-Fab as analyte; murine GDF15 ligand (Mu IgG1Fc_Fxa_Mu GDF15), first run. In general terms: In SPR one partner is held on a chip, and binding of the other changes the refractive index at the surface.
For experiment [2] the target is unchanged. Description: SPR BIAcore T200, 37C; Fc-GDF15 captured, monomeric Fc-Fab as analyte; average of runs.
For experiment [3], the target named is T1, Mouse Fc-human GDF15 (Mu IgG1Fc_Fxa_Hu GDF15) (human).
T1 construct: Whole entry is the fusion: mouse IgG1 Fc, FXa site and linker, mature human GDF15; described as dimeric; also called Murine dimeric IgG1 Fc-human GDF-15 with FXa cleavage site; control human GDF15
T1 chain: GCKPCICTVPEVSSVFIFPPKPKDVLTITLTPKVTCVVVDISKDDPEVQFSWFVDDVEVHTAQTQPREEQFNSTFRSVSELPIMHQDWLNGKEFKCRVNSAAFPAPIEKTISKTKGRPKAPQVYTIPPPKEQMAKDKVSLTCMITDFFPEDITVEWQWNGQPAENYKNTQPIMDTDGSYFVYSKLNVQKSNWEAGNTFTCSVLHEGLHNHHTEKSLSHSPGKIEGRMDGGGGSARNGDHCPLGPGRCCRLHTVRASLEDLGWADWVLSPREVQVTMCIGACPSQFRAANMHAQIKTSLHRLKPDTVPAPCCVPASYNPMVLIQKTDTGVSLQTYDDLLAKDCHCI
Description: SPR BIAcore T200, 37C; Fc-GDF15 captured, monomeric Fc-Fab as analyte. The source says:
(§1) To understand the KD value, without the avidity effect, of GDF15_001 binding to GDF15, monomeric Fc-Fab was produced and tested in the same assay used in Example 2. […] Mu IgG1Fc_Fxa_Hu GDF15, Mu IgG1Fc_Fxa_Mu GDF15 and Mu IgG1Fc_Fxa_Cyno GDF15 were captured onto three different flow cells of a CM4 sensorchip (catalogue number BR100534, GE Healthcare) surface using the Mouse Antibody Capture Kit (BR100838, GE Healthcare) according to the manufacturer's protocol. The running and sample buffer was 10 mM HEPES pH 7.4, 0.15M NaCl, 3 mM EDTA, 0.05% P-20 (HBS-EP+). The final capture levels of Mu IgG1Fc_Fxa_Hu GDF15, Mu IgG1Fc_Fxa_Mu GDF15 and Mu IgG1Fc_Fxa_Cyno GDF15 were 19 resonance units (RU), 22 RU and 19 RU respectively. Flow cell 1 was used as a reference flow cell. […] The dissociation was monitored for 1200 seconds and the surface was regenerated with 10 mM Glycine pH 1.7. Binding affinities and rate constants were determined by fitting the resulting sensorgram data to a 1:1 Langmuir model in BIAcore T200 Evaluation software version 2.0 (GE Healthcare).

For experiment [4], the target named is T2, Mouse Fc-cynomolgus monkey GDF15 (Mu IgG1Fc_Fxa_Cyno GDF15) (cynomolgus monkey).
T2 construct: Whole entry is the fusion: mouse IgG1 Fc, FXa site and linker, cynomolgus GDF15; described as dimeric; also called Murine dimeric IgG1 Fc-cyno GDF-15 with FXa cleavage site
T2 chain: T1 chain with H239R, R254H, A287E, T296M, S297N, I345V
Described as above.
From the text: as §1

The target in a further experiment is T3, human TGFß-1 (human, UniProt P01137 279-390).
T3 construct: Bought; also called TGFB-1
Description: BLI, OctetRED 384; family member amine coupled to AR2G biosensor. The protocol: (§2) To assess the binding specificity of GDF15_001 to human GDF15, GDF15_001 binding to additional TGFB family members was tested. Analysis was carried out on an Octet Red instrument.
(§3) The TGFB family members were diluted to 10 ug/ml in 10 mM Sodium Acetate pH 4.5 and amine coupled onto AR2G biosensors (catalogue #18-5092, ForteBio) according to the manufacturer's instructions. Monomeric GDF15_001 was diluted to 200 nM in kinetics buffer (catalogue #18-5032 ForteBio). Octet assays were conducted at room temperature with an association time of 300 seconds and a dissociation time of 180 seconds. The data was double referenced (Myszka, D., J. Mol. Recognit 1999; 279-284) and analyzed with Octet Data Analysis software version 8.1 (ForteBio).
(In general: Biolayer interferometry detects binding as a change in optical thickness at a sensor tip.)

The target in a further experiment is T4, human Activin B (human, UniProt P09529 293-407).
T4 construct: Bought
T4 sequence (looked up): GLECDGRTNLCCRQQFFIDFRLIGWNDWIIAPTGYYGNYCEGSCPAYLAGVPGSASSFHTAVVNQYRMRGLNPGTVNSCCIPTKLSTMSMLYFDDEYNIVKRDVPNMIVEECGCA
Described as above. The protocol:
as §2, §3

In another experiment the target is T5, human BMP2 (human, UniProt P12643 283-396).
T5 construct: Bought
The experiment is described as above. How it is done:
as §2, §3

Experiment [5] deals with T1, Mouse Fc-human GDF15 (Mu IgG1Fc_Fxa_Hu …). Description: SPR BIAcore T200, 37C; Fc-GDF15 captured, monomeric Fc-Fab as analyte; average of runs.
From the text: as §1

In experiment [6] the target is T2, Mouse Fc-cynomolgus monkey GDF15 (Mu …). Described as above.
From the text: as §1

The target of experiment [7] is Mouse Fc-mouse GDF15 (Mu IgG1Fc_Fxa_Mu GDF15) (mouse). Description: SPR BIAcore T200, 37C; Fc-GDF15 captured, monomeric Fc-Fab as analyte; murine GDF15 ligand (Mu IgG1Fc_Fxa_Mu GDF15), second run.

Where a chain is given by its changes, count along the chain named. Where “and” joins values, the source holds several entries; their conditions need not be identical. Equal entries are not always repeated.

T3 sequence (P01137 279-390 limits assumed): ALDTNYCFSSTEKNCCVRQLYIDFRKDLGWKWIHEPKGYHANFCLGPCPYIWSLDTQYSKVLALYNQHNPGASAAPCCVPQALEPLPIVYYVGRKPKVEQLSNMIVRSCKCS
T5 sequence (P12643 283-396 limits assumed): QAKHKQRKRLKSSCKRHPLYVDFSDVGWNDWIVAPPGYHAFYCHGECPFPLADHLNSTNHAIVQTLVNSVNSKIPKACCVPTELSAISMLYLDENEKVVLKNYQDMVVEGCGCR

B1: monomeric GDF15_001 (CH23LS-GBT-GDF15_001) (Fab, V domains shown)
VH: QVQLVQSGAEVKKPGSSVKVSCKASGYTFSSYNIDWVRQAPGQGLEWMGGINPIFGTAFYNQKFQGRVTITADESTSTAYMELSSLRSEDTAVYYCAREAITTVGAMDHWGQGTLVTVSS
VL: EIVLTQSPATLSLSPGERATLSCRTSQSVHNYLAWYQQKPGQAPRLLIYDASTRADGIPARFSGSGSGTDFTLTISSLEPEDFAVYYCQQFWSWPWTFGQGTKVEIK
notes: Monovalent 'monomeric Fc-Fab' of GDF15_001 made to measure KD without avidity; also called CH23LS-GDF15_001; monomeric Fc-Fab
One may read the Kd as the constant that tells how readily two partners part at equilibrium. As a reminder, the koff is the rate constant with which the complex falls apart. The kon is the second-order rate constant of association. With B1, the equilibrium dissociation constant (Kd) in [1] is 2.11 nM; in [2], 1.97 nM; in experiment [4], 0.0458 nM and 0.0782 nM; in experiment [5] it was 0.0213 nM; in [6], 0.062 nM; in experiment [7] it was 1.82 nM. The koff in [2] was 0.00326 s⁻¹; in experiment [3], 2.25e-05 s⁻¹ and 4.58e-05 s⁻¹; in experiment [4], 7.48e-05 s⁻¹ and 9.39e-05 s⁻¹; in [5], 3.42e-05 s⁻¹; in experiment [6] it was 8.43e-05 s⁻¹. The kon is 1.66e+06 M⁻¹ s⁻¹ in experiment [2]; 1.52e+06 M⁻¹ s⁻¹ and 1.66e+06 M⁻¹ s⁻¹ in experiment [3]; 1.63e+06 M⁻¹ s⁻¹ and 1.2e+06 M⁻¹ s⁻¹ in experiment [4]; 1.59e+06 M⁻¹ s⁻¹ in experiment [5]; 1.42e+06 M⁻¹ s⁻¹ in experiment [6]. Besides, the T½ min in experiment [3] was 8.54 h and 4.2 h; in experiment [4], 2.57 h and 2.05 h. Further, the binding result with human TGFß-1, in the experiment with human Activin B and in the experiment with human BMP2 was “no binding (tested: 200 nM)” each time.
